Values of other authors, collected in paper PMC12692597.

Molecular target: IL-13 (Homo sapiens) (UniProt P35225)
Chain of UniProt P35225 (P35225 25-146): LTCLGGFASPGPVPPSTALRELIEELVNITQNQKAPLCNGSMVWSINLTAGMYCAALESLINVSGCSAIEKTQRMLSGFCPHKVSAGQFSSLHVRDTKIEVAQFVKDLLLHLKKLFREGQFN

**Q.** With IL-13Rα2 (from UniProt Q14627) as the substance, how does the Kd read?
**A.** 20 pM
